± gives the uncertainty stated by the source.
Assay: self-splicing fitness, log relative to wild type (ln ratio); higher = more splicing; Tetrahymena group I intron in knt gene, E. coli kanamycin selection, DiMSum; sequences stand for … in CUCUCU…GGAGGGAAAAGUUAUCAGGCAUGCACCUGGUAGCUAGUCUUUAAACCAAUAGAUUGCAUCGGUUUAAAAGGCAAGACCGUCAAAUUGCGGGAAAGGGGUCAACAGCCGUUCAGUACCAAGUCUCAGGGGAAACUUUGAGAUGGCCUUGCAAAGGGUAUGGUAAUAAGCUGACGGACAUGGUCCUAACCACGCAGCCAAGUCCUAAGUCAACAGAUCUUCUGUUGAUAUGGAUGCAGUUCACAGACUAAAUGUCGGUCGGGGAAGAUGUAUUCUUCUCAUAAGAUAUAGUCGGACCUCUCCUUAAUGGGAGCUAGCGGAUGAAGUGAUGCAACACUGGAGCCGCUGGGAACUAAUUUGUAUGCGAAAGUAUAUUGAUUAGUUUUGGAGUACUCGUGGUCG
Outline: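 Six replicate transformations of E. coli BL21(DE3) with a pET-22b(+) library were grown overnight at 37°C or 30°C. The library randomised all eight P1ex-region intron nucleotides, the intron lying in the knt kanamycin-resistance gene, and plates were LB agar with or without 25 μg/mL kanamycin plus 100 μg/mL carbenicillin, 50 μM IPTG and 0.2% rhamnose. Pooled colonies were amplicon-sequenced on an Illumina HiSeq 2500, and fitness is the DiMSum error-weighted combination of wild-type-normalised replicate fold changes, kanamycin versus none.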

Row | Sequence | self-splicing fitness (ln) (30 °C) | self-splicing fitness (ln) (37 °C)
1 | UGUCAGCAAUAUUACGUUCG | 0.194 ± 0.073 | 0.709 ± 0.1
2 | UGUGAGCAAUAUUACGAAGG | -3.98 ± 0.33 | -2.19 ± 0.3
3 | UGUGAGCAAUAUUACGACAA | -1.97 ± 0.14 | -1.68 ± 0.14
4 | UGUGAGCAAUAUUACGACGC | -2.98 ± 0.33 | -2.67 ± 0.38
5 | UGUGAGCAAUAUUACGACUG | -1.04 ± 0.18 | -0.343 ± 0.29
6 | UGUGAGCAAUAUUACGAUGG | -2.74 ± 0.2 | -2.27 ± 0.19
7 | UGUGAGCAAUAUUACGCCAA | -1.67 ± 0.5 | -0.355 ± 0.39
8 | UGUGAGCAAUAUUACGCCGG | -3.85 ± 0.25 | -1.98 ± 0.33
9 | UGUGAGCAAUAUUACGCCUU | -2.28 ± 0.4 | –
10 | UGUGAGCAAUAUUACGCUAG | -3.43 ± 0.32 | -1.59 ± 0.2
11 | UGUGAGCAAUAUUACGCUGA | -2.24 ± 0.46 | –
12 | UGUGAGCAAUAUUACGGAAA | -2.62 ± 0.38 | -2.61 ± 0.31
13 | UGUGAGCAAUAUUACGGAGG | -3.33 ± 0.29 | -2.11 ± 0.34
14 | UGUGAGCAAUAUUACGGAUA | -1.65 ± 0.35 | -1.64 ± 0.34
15 | UGUGAGCAAUAUUACGGAUG | -3.1 ± 0.17 | -1.52 ± 0.23
16 | UGUGAGCAAUAUUACGGCAA | -1.83 ± 0.23 | -1.27 ± 0.25
17 | UGUGAGCAAUAUUACGGCGA | -1.37 ± 0.14 | -1.05 ± 0.15
18 | UGUGAGCAAUAUUACGGUGG | -2.64 ± 0.19 | -3.01 ± 0.35
19 | UGUGAGCAAUAUUACGUAAA | -2.31 ± 0.15 | -1.31 ± 0.21

Row | Sequence | self-splicing fitness (ln) (30 °C) | self-splicing fitness (ln) (37 °C)
20 | UGUGAGCAAUAUUACGUAAG | -1.7 ± 0.15 | -0.85 ± 0.21
21 | UGUGAGCAAUAUUACGUAUC | -3.75 ± 0.37 | -2.3 ± 0.32
22 | UGUGAGCAAUAUUACGUCUA | -1.51 ± 0.16 | -1.36 ± 0.15
23 | UGUGAGCAAUAUUACGUGAG | -1.67 ± 0.14 | -1.52 ± 0.18
24 | UGUUAGCAAUAUUACGAACC | -0.427 ± 0.21 | 0.133 ± 0.25
25 | UGUUAGCAAUAUUACGAGCG | 0.176 ± 0.095 | -0.175 ± 0.12
26 | UGUUAGCAAUAUUACGCAAU | -4.18 ± 0.42 | -2.67 ± 0.27
27 | UGUUAGCAAUAUUACGCAUA | -1.72 ± 0.21 | -0.397 ± 0.16
28 | UGUUAGCAAUAUUACGCGCG | -1.36 ± 0.19 | -0.771 ± 0.21
29 | UGUUAGCAAUAUUACGGACA | -1.59 ± 0.23 | -0.73 ± 0.2
30 | UGUUAGCAAUAUUACGGCAC | -1.58 ± 0.47 | -1.51 ± 0.43
31 | UGUUAGCAAUAUUACGGGUG | -0.781 ± 0.071 | -0.441 ± 0.086
32 | UGUUAGCAAUAUUACGGUAG | -0.65 ± 0.22 | -0.35 ± 0.19
33 | UGUUAGCAAUAUUACGGUCA | 0.281 ± 0.096 | 0.169 ± 0.11
34 | UGUUAGCAAUAUUACGGUGC | -3.76 ± 0.43 | -2.88 ± 0.32
35 | UGUUAGCAAUAUUACGUAAA | -0.887 ± 0.14 | 0.19 ± 0.21
36 | UGUUAGCAAUAUUACGUACU | 0.199 ± 0.2 | 0.344 ± 0.18
37 | UGUUAGCAAUAUUACGUAUU | – | -2.12 ± 0.3
38 | UGUUAGCAAUAUUACGUCUC | -4.05 ± 0.42 | -2.07 ± 0.31
